Measurements reported in patent US11795460B2, “Compositions and methods for TTR gene editing and treating ATTR amyloidosis” (Intellia Therapeutics, Inc., priority 2017, dated 2023).
Strand notation (5' to 3'): a small letter for the sugar, then the base; units joined by * are phosphorothioate-linked, units joined directly phosphodiester-linked; [ ] holds rarer units or linkages, { } end groups; capitals alone tell only the bases. m = 2'-O-methyl; r = 2'-OH (RNA)

B1: G000502: TTR Cyno specific sgRNA modified sequence, SEQ ID No. 114; guide sequence of CR000689; cross homologous between mouse and cyno (nucleic acid)
guide: mA*mC*mA*rCrArArArUrArCrCrArGrUrCrCrArGrCrGrGrUrUrUrUrArGrAmGmCmUmAmGmAmAmAmUmAmGmCrArArGrUrUrArArArArUrArArGrGrCrUrArGrUrCrCrGrUrUrArUrCrAmAmCmUmUmGmAmAmAmAmAmGmUmGmGmCmAmCmCmGmAmGmUmCmGmGmUmGmCmU*mU*mU*mU
B2: G000481: TTR sgRNA modified sequence, Human, SEQ ID No. 88; guide sequence of CR003345 (nucleic acid)
guide: mU*mC*mU*rArGrArArCrUrUrUrGrArCrCrArUrCrArGrGrUrUrUrUrArGrAmGmCmUmAmGmAmAmAmUmAmGmCrArArGrUrUrArArArArUrArArGrGrCrUrArGrUrCrCrGrUrUrArUrCrAmAmCmUmUmGmAmAmAmAmAmGmUmGmGmCmAmCmCmGmAmGmUmCmGmGmUmGmCmU*mU*mU*mU

Assays:
[1] = system: mouse TTR; assay: Serum mouse TTR ELISA in mice dosed with LNP formulations (Table 28); assay type: in vivo; conditions: wild type CD-1 mice; 1, 0.3, 0.1, 0.03, or 0.01 mg/kg; FIG. 15B
Method: Blood was collected and the serum was isolated as indicated. The total mouse TTR serum levels were determined using a Mouse Prealbumin (Transthyretin) ELISA Kit (Aviva Systems Biology, Cat. OKIA00111); rat TTR serum levels were measured using a rat specific ELISA kit (Aviva Systems Biology catalog number OKIA00159); human TTR serum levels were measured using a human specific ELISA kit (Aviva Systems Biology catalog number OKIA00081); each according to manufacture's protocol. Briefly, sera were serial diluted with kit sample diluent to a final dilution of 10,000-fold, or 5,000-fold when measuring human TTR in mouse sera. […] The absorbance of the contents was measured on the Spectramax M5 plate reader with analysis using SoftmaxPro version 7.0 software. Serum TTR levels were quantitated off the standard curve using 4 parameter logistic fit and expressed as ug/mL of serum or percent knockdown relative control (vehicle treated) animals.
In separate experiments using wild type CD-1 mice, an LNP formulation comprising guide G000502, which is cross homologous between mouse and cyno, was tested in a dose response study. […] Liver editing results were determined using primers designed to amplify the region of interest for NGS analysis. […]

[2] = system: human TTR protein; assay: Human TTR protein ELISA in serum and cerebrospinal fluid of V30M mice; assay type: in vivo, mouse; conditions: V30M humanized mice, single 1 mg/kg dose, 8 weeks post treatment
Method: (§1) A well-established humanized transgenic mouse model of hereditary ATTR amyloidosis that expresses the V30M pathogenic mutant form of human TTR protein was used in this Example. This mouse model recapitulates the TTR deposition phenotype in tissues observed in ATTR patients, including within the peripheral nervous system and gastrointestinal (GI) tract (See Santos et al., Neurobiol Aging. 2010 February; 31(2):280-9).
(§2) Mice (aged approximately 4-5 months) were dosed with LNP formulations prepared using the cross-flow and TFF procedures as described in Example 1. The LNPs were formulated with an N:P ratio of 6.0 and contained Lipid A, Cholesterol, DSPC, and PEG2k-DMG in a 50:38:9:2 molar ratio, respectively. The LNPs contained Cas9 mRNA (SEQ ID NO: 1) and either G000481 (“G481”) or a non-targeting control guide G000395 (“G395”; SEQ ID NO: 273), in a 1:1 ratio of gRNA:mRNA by weight.
(§3) Mice were injected via the lateral tail vein as described in Example 1 with a single 1 mg/kg (of total RNA content) dose of LNP with an n=10/group. […] Human TTR protein levels were measured in serum and cerebrospinal fluid (CSF) by ELISA as previously described by Butler et al., Amyloid. […] Other tissues (stomach, colon, sciatic nerve, dorsal root ganglion (DRG)) were collected and processed for semi-quantitative immunohistochemistry as previously described by Gonsalves et al., Amyloid. […]

[3] = system: TTR protein amyloid deposition; assay: Semi-quantitative immunohistochemistry of TTR in stomach, colon, sciatic nerve, DRG of V30M mice; assay type: in vivo, mouse; conditions: 8 weeks post-treatment, single 1 mg/kg dose
Method: as §1, §2, §3

Molecule	Serum mouse TTR levels, dose response [1]	TTR protein levels in CSF [2]	Knockdown of TTR plasma levels ([2]; p<0.001)	Reduction in TTR staining across the treated tissues [3]
B1	A dose response for both editing and serum TTR levels was evident	–	–	–
B2	–	not in CSF	greater than 99%	≥ 85%
